Reference: PMC6005192

Molecular target: bacteriophage λ holin S105, allele S105τ94 (internal G2H6G2 tag) (bacteriophage λ)
Assay: cryo-EM structure

bacteriophage λ holin S105, allele S105τ94 (internal G2H6G2 tag) (natural protein)
stoichiometry N: 72
